Measurements as given in publication PMC3258161.

Target: PL6S* (PvuII-L6-I-SceI* fusion enzyme: wt PvuII fused via linker L6 to I-SceIΔC9,D44N,D145A) (UniProt P03882)
Test: AUC

PL6S* (PvuII-L6-I-SceI* fusion enzyme: wt PvuII fused via linker L6 to I-SceIΔC9,D44N,D145A) (from UniProt P03882 1-226)
stoichiometry N: 2
